{"source": "paper PMC3834315", "target": "T1, C-terminally hexa-histidine (His6)-tagged VapC10 (toxin, PIN-domain protein, slr1767) of Synechocystis sp. … (Synechocystis sp. PCC 6803, UniProt P73045 1-112)", "T1 construct": "also called VapC10-His6; VapC-His6; not shown: His6, C-terminal, kept", "T1 sequence (looked up)": "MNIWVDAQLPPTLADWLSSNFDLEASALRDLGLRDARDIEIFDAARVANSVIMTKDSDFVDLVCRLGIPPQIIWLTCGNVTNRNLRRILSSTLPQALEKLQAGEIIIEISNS", "assay": "pull-down", "details": "partners not purified", "data": [{"binder": "VapB10 (antitoxin, COG2442-domain protein, ssr2962) of Synechocystis sp. PCC 6803 (natural protein, UniProt P73044 1-74, looked up, source: E. coli BL21(DE3)(pJS653), co-expressed with VapC10-His6, in cleared lysate) MNSLLSRITQTPGQCGGRPCIRGMRIRVSDILEMLAENVSTSEILEDFPDLEMADIQACLVFAARRTDFSRLTA", "values": [{"measurement": "stoichiometry N", "result": "~1", "unit": "VapB10 per VapC10-His6"}]}]}
